Assay results as given in patent US20240083999A1 (TRUSTEES OF TUFTS COLLEGE, published 2024).

T1: mouse interleukin 6 (mIL-6) (mouse, UniProt P08505 25-211)
T1 construct: the whole entry is named; also called mouse IL-6; mouse IL6
T1 sequence: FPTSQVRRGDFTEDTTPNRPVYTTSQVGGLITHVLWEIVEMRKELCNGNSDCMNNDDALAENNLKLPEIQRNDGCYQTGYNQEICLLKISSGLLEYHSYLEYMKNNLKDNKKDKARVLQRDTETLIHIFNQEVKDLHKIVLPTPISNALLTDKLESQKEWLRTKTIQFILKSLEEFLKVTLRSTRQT

B1: hIL-6-binding VHH JYK-D12 (Trx/JYK-D12/E) (VHH)
VHH: QLQLVESGGGLVQPGGSLGLSCAASGFTLAYYGIGWFRQAPGKEREGVACISSSDLSTYYADSVKGRFTISRDNAKDTVYLQMNSLKPEDTAVYYCAAGTWDLKFGYSRSNCVRSYEYDYWGQGTQVTVSS
notes: Expressed in E. coli as Trx/VHH/E fusion; also called JYK-D12 sh.ab1; expression vector JYR-3; not shown: Trx fusion partner of the construct Trx/JYK-D12/E
B2: hIL-6-binding VHH JYK-A1 (Trx/JYK-A1/E) (VHH, not shown: large carriers)
VHH: QLQLAETGGGLVQPGGSLRLSCAASGFTLDYYAVGWFRQAPGKEREGISCISSSDLKTYYADSVKGRFTISRDYAKSTVSLQMNSLKPEDTGVYYCAAGTWDLKFGYNISACVGSYEYDYWDQGTQVTVSS
B3: hIL-6-binding VHH JYK-A9 (Trx/JYK-A9/E) (VHH, not shown: large carriers)
VHH: QVQLVESGGGLVQAGDSLTLSCAASGRPFSSFAMGWFRQAPGKEREFVAAITWSRGTTHYADSVKGRFTISGDNAKNTVFLQMNSLKPEDTAVYYCAAADGWKVVSTASPAYDYWGQGTQVTVSS
B4: hIL-6-binding VHH JYK-H9 (Trx/JYK-H9/E) (VHH, not shown: large carriers)
VHH: QLQLVETGGGLVQPGGSLRLSCAASGFTLDYYAIGWFRQAPGKEREGVSCLSSSDRSTYYVDSVKGRFTISRDDDKNTAYLQMNSLKPEDTATYYCAAGTWDLKWGYNISACVGSYEYDYWGQGTQVTVSS
B5: JYK-D12/JYK-D12 homodimer (VHH)
chain: QVQLVESGGGLVQPGGSLGLSCAASGFTLAYYGIGWFRQAPGKEREGVACISSSDLSTYYADSVKGRFTISRDNAKDTVYLQMNSLKPEDTAVYYCAAGTWDLKFGYSRSNCVRSYEYDYWGQGTQVTVSSGGGGSGGGGSGGGGSQVQLVESGGGLVQPGGSLGLSCAASGFTLAYYGIGWFRQAPGKEREGVACISSSDLSTYYADSVKGRFTISRDNAKDTVYLQMNSLKPEDTAVYYCAAGTWDLKFGYSRSNCVRSYEYDYWGQGTQVTVSS
notes: One polypeptide with two JYK-D12 units; also called VCR-108

Columns and labels:
[1] = molecular target: T2, human interleukin 6 (hIL-6) (human, UniProt P05231 30-212); assay: cell-based or functional assay
[2] = molecular target: T2, human interleukin 6 (hIL-6); assay: dilution ELISA, plate-coated hIL-6
Text: Based on sequence analysis, five clonally-independent families of the anti-hIL-6 VHHs, i.e., having sequence homology derived from independent B cell origins, were obtained. One family represented the majority of VHH family members that strongly bound to hIL-6 as determined by ELISA; therefore, multiple variants of this family were also sequenced. The anti-hIL-6 VHH coding DNA of selected VHHs was re-cloned into E. coli expression vectors and the anti-hIL-6 VHH proteins were expressed and purified using standard methods. The purified anti-hIL-6 VHHs were subjected to dilution ELISA analysis to assess their apparent affinities for binding to hIL-6. […] (See, e.g., Mukherjee, J., et al., 2012 PLoS ONE, 7, e299411). The EC₅₀ value of JYK-D12 for binding hTL-6 as determined by ELISA was about 0.4 nM.
Maxisorp ELISA plates (Nunc; Thermo Fisher USA) coated with recombinantly produced hIL-6 protein (0.5-5 μg/ml) overnight at 4° C. were used for immuno-binding assays (ELISA). Plates were washed 3 times with 1×PBS+0.1% Tween, followed by washing 3 times with 1×PBS. Washed plates were blocked (4-5% non-fat dry milk in 1×PBS+0.1% Tween) for 1 hour at room temperature (RT) with rocking. Serially diluted (1:5) hIL-6 VHH binding molecules targeting hIL-6, diluted in blocking solution, were incubated for 1 hour at RT with rocking and washed as above. […]

[3] = molecular target: T1, mouse interleukin 6 (mIL-6); assay: told from an in vivo STAT3 phosphorylation Western blot (FIG. 7), not a direct binding assay
Procedure: Experiments were conducted to determine whether the representative anti-hIL-6 VHH antibody cross-reacted with mouse IL-6 in vivo. In this experiment, one group of C57BL/6 mice was injected intraperitoneally with 1 μg of mouse IL-6 (mIL-6) in PBS; another group of C57BL/6 mice was injected with 1 μg of mouse IL-6 (mIL-6) plus 0.4 μg anti-hIL-6 VHH antibody. The animals were euthanized 30 minutes post-injection; their livers were isolated; and protein was extracted. Western blot analyses were carried out to assess the phosphorylation of STAT3 using P-STAT3 Y705 antibody (1:1,000 dilution) and STAT3 antibody (1:2,000 dilution), (Cell Signaling Technology (CST), Danvers, MA). The results of the Western blot analysis to assess the cross-reactivity of the anti-hIL-6 VHH antibody in mIL-6-induced hepatic STAT activation are shown in FIG. 7.

Binder | complete neutralization, 7TD1 cell proliferation (neutralization) assay [1] [µg/mL] | other results
B1 | 0.0009 | ED50, 7TD1 cell proliferation (neutralization) assay [1]: < 0.3 ng/mL; EC50 [2]: ~400 pM
B2 | 0.0247 | –
B3 | 2 | –
B4 | 0.0027 | –
B5 | – | binding result [3]: binds; effective dose against Tocilizumab, in vivo neutralization assay [1]: 1000 fold
